The text below walks through data of patent US8106013B2 (Georgia Tech Research Corporation, priority 2006, dated 2012).

For experiment [1], the target named is T1, Shaker Kv1.1 channels (ShB-IR) (Drosophila melanogaster, UniProt P08510, DEL6-46).
T1 construct: expressed in transfected cells; host or cells: Xenopus oocytes injected with cRNA
The conditions noted are these: read-out: reported Ki for inhibition of Shaker channels; cited from earlier work.

Experiment [2] addresses T1, Shaker Kv1.1 channels (ShB-IR). Kind of experiment: ShB-IR K+ currents in oocytes, two-electrode voltage clamp. The experiment is classed as cell-based. To be noted: 24 nM recombinant ChTx. (Two-electrode voltage clamp holds a large cell at a set potential and records current.)
Experimental: For ShB-IR, holding potential was −90 mV. Leak subtraction used a P/4 protocol with a conditioning pulse to −120 mV. Voltage was stepped from −100 mV post-train to potentials ranging from −40 to 0 mV in 10 mV increments.
Adult female Xenopus were obtained from Xenopus One (Ann Arbor, Mich.). […] For experiments with ShB-IR, oocytes were injected with 0.06-1 ng cRNA. Leak currents were subtracted using a P/4 protocol; corrected traces are shown.
For these experiments, the ShB variant was used with inactivation-removed (ShB-IR).

T1 sequence (P08510 with tags, fused parts or gaps DEL6-46): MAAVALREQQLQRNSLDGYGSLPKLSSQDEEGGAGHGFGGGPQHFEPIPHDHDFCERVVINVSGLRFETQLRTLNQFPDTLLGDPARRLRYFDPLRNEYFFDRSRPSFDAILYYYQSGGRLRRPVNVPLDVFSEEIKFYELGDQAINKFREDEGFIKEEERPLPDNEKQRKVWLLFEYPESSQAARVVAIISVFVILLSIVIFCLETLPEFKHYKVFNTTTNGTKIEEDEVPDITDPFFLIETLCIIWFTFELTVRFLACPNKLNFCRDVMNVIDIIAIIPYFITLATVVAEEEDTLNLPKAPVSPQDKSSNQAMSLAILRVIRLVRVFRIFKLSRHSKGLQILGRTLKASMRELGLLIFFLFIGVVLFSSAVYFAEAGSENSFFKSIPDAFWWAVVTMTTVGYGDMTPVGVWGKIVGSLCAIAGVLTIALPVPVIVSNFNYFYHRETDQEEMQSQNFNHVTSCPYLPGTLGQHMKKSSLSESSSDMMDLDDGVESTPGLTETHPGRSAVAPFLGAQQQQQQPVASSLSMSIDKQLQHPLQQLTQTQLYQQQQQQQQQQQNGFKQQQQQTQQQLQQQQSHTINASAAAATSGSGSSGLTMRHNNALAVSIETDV

For the substance charybdotoxin [ChTx], the Ki (usually the dissociation constant of the complex between target and ligand, obtained from inhibition or displacement) in experiment [1] is roughly 200 nM. Further, in experiment [2], the “inhibition of ShB-IR currents” value is 15%.
